{"source": "patent US20230125561A1", "about": "(published 2023)", "binders": {"B1": {"name": "Neumifil (HEX17: trimeric (hexavalent) form based on S. pneumoniae CBM40) (designed binder)", "chain": "GAMVIEKEDVETNASNGQRVDLSSELDKLKKLENATVHMEFKPDPKAPAFYNLFSVSSATKKDEYFTMAVYNNTATLEGRGSDGKQFYNNYNDAPLKVKPGQWNSVTFTVEKPTAELPKGRARLYVNGGLSRTSLRSGNFIKDMPDVTHVQIGATKRANNTVWGSNLQIRNLTVYNRALTPEEVQKRSGGGSGVIEKEDVETNASNGQRVDLSSELDKLKKLENATVHMEFKPDPKAPAFYNLFSVSSATKKDEYFTMAVYNNTATLEGRGSDGKQFYNNYNDAPLKVKPGQWNSVTFTVEKPTAELPKGRARLYVNGGLSRTSLRSGNFIKDMPDVTHVQIGATKRANNTVWGSNLQIRNLTVYNRALTPEEVQKRSGGSLGVPDFESDWFDVSSNSLYTLSHGLQRSPRRVVVEFARSSSPSTWNIVMPSYFNDGGHKGSGAQVEVGSLNIKLGTGAAVWGTGYFGGIDNSATTRFATGYYRVRAWI"}}, "biological_target": "SARS-CoV-2 Spike S1 protein, B.1.351 (S. African) variant (SARS-CoV-2, UniProt P0DTC2 16-685)", "experiment": "ELISA", "data": [{"binder": "B1", "values": [{"measurement": "EC50", "value": 0.17, "unit": "µg/mL"}]}]}
